# Measured values from patent US20220125770A1, “COMBINATION THERAPY OF ALK-POSITIVE NEOPLASIA” (Academisch Medisch Centrum, priority 2019, published 2022).
# B1: TRAIL: TNF-related apoptosis-inducing ligand; recombinant soluble human TRAIL (Peprotech; His-tagged for in vivo); also doxycycline-induced transgene in SK-N-AS-TRAIL cells (protein, UniProt P50591 39-281, looked up)
# extracellular domain: TNELKQMQDKYSKSGIACFLKEDDSYWDPNDEESMNSPCWQVKWQLRQLVRKMILRTSEETISTVQEKQQNISPLVRERGPQRVAAHITGTRGRSNTLSSPNSKNEKALGRKINSWESSRSGHSFLSNLHLRNGELVIHEKGFYYIYSQTYFRFQEEIKENTKNDKQMVQYIYKYTSYPDPILLMKSARNSCWSKDAEYGLYSIYQGGIFELKENDRIFVSVTNEHLIDMDHEASFFGAFLVG
# modifications: extracellular domain His tag
# notes: TNF-related apoptosis-inducing ligand; recombinant soluble human TRAIL (Peprotech; His-tagged for in vivo); also doxycycline-induced transgene in SK-N-AS-TRAIL cells
# Key:
# [1] = test system: MES-type neuroblastoma cells; assay: Cell viability (MTT) assay, MES-type cells of isogenic cell line pairs; assay type: cell-based, human
# Protocol: […] Seeding densities were optimized for each cell line so that the control, non-treated cells would reach 70-80% confluence by the end of the experiment. […] Metabolic activity was measured by 3-(4,5-dimethylthiazol-2-yl)-2,5-diphenyltetrazolium bromide (MTT) assay, according to the manufacturer's instructions with minor modifications. Sextuple or triplicate measurements were used for each experimental condition. Two-sided t-tests assuming equal variance were used to determine significance. Experiments were repeated at least twice.
# [2] = test system: ADRN-type neuroblastoma cells; assay: Cell viability (MTT) assay, ADRN-type cells of isogenic cell line pairs; assay type: cell-based, human
# Protocol: Cells were plated in 96-well plates, one day before the addition of Lorlatinib (HY-12215, MedChemExpress) and/or TRAIL (Peprotech) to the culture medium. Seeding densities were optimized for each cell line so that the control, non-treated cells would reach 70-80% confluence by the end of the experiment. […] Metabolic activity was measured by 3-(4,5-dimethylthiazol-2-yl)-2,5-diphenyltetrazolium bromide (MTT) assay, according to the manufacturer's instructions with minor modifications. Sextuple or triplicate measurements were used for each experimental condition. Two-sided t-tests assuming equal variance were used to determine significance. Experiments were repeated at least twice.
# [3] = test system: SK-N-AS-TRAIL xenografts; assay: SK-N-AS-TRAIL xenograft tumour growth; assay type: in vivo, NMRI-Foxn1nu/nu mice; conditions: TRAIL induced by doxycycline, established tumours 200 mm^3, five-week doxycycline stimulation
# Protocol: For the SK-N-AS-TRAIL xenograft experiments, 1×10^6 cells were suspended in 200 μl of a 50% Matrigel solution in PBS and subcutaneously injected in NMRI-Foxn1nu/nu mice. After tumour outgrowth to around 200-250 mm^3, mice were randomized to control or treatment groups. The DOX group was provided drinking water with 200 μg/ml doxycycline. DOX-containing water was refreshed weekly. Control mice received regular drinking water ad lib. Mice were screened regularly to follow tumour formation and were sacrificed before tumour reached 1500 mm^3. All animal experiments were conducted under the institutional guidelines and according to the law and approved in DAG155 by the AMC animal ethics committee.
# [4] = test system: SH-EP2 cells (MES-type); assay: 3D spheroid co-culture of SK-N-AS-TRAIL cells with SH-EP2-GFP cells; assay type: cell-based, human; conditions: doxycycline-induced TRAIL expression, 48 hours, 3D model
# Protocol: (§1) Spheroid assays were performed as described^28. A suspension of 10000 cells of 3:1 SKNAS-TRAIL:SH-EP2-GFP or 3:1 SKNAS-TRAIL:IMR32-GFP was added in triplicate to 96 well round bottom suspension plates. After 48 hours incubation with 0 or 300 ng/ml doxycycline bright-field and fluorescent images of the 3D cultures were taken.
# [5] = test system: IMR32 cells (ADRN-type); assay: 3D spheroid co-culture of SK-N-AS-TRAIL cells with IMR32-GFP cells; assay type: cell-based, human; conditions: doxycycline-induced TRAIL expression, 48 hours, 3D model
# Protocol: as §1
# [6] = test system: mixed culture of SH-SY5Y-GFP (ADRN-type) and SH-EP2-RFP (MES-type) cells; assay: Flow cytometry of mixed cultures of SH-EP2-RFP and SH-SY5Y-GFP cells; assay type: cell-based, human; conditions: 120 hours, relative to DMSO control
# Protocol: GFP and RFP labelled cells were plated at given densities (see Figure description), collected by trypsin treatment, washed twice with FACS buffer and analysed using flow cytometer (BD biosciences) and BD Accuri C6 software.
# [7] = test system: SK-N-AS-TRAIL cells; assay: Apoptosis of SK-N-AS-TRAIL cells after doxycycline-induced TRAIL expression in vitro; assay type: cell-based, human; conditions: doxycycline-induced membrane TRAIL expression, 300 ng/ml doxycycline
# Protocol: The SK-N-AS cell line with inducible TRAIL expression was generated by cloning human TRAIL from pUNO1-hTRAILa vector (InvivoGen) into the lentiviral pINDUCER (pIND) system (Invitrogen). Expression of the TRAIL transgene was induced by the addition of doxycycline to the culture medium at a final concentration of 300 ng/ml. SH-SY5Y-GFP, IMR-GFP and SH-EP2-GFP were generated by lentiviral (pLenti, Invitrogen) transduction of turboGFP (SHC003, Sigma) and SH-EP2-RFP by lentiviral (pLenti, invitrogen) transduction of near-infrared fluorescent protein NirFP (Evrogen). […]
# To determine the effect of doxycycline-induced TRAIL expression on SK-N-AS cells, 150.000 SK-N-AS-TRAIL cells were seeded in triplicate in 6 well/plates in 2 ml medium supplemented with or without 300 ng/ml doxycycline. Cell number was determined using a coulter counter (Beckman) at every 3rd or 4th day and cells were reseeded at similar cell number as at the start until the end of the experiment. The proliferation factor was defined as the ratio of the cells counted and the cells plated.
# Sub-G1 fractions were determined after 72 hours treatment with 300 ng/ml doxycycline. […] After 1 hour incubation, DNA content of the nuclei was analysed using a Accuri C6 flow cytometer (BD biosciences). The cell cycle distribution and apoptotic sub G1 fraction was determined using BD Accuri C6 software.
# [8] = test system: SH-SY5Y xenografts; assay: SH-SY5Y xenograft tumour growth; assay type: in vivo, NMRI-Foxn1nu/nu mice; conditions: TRAIL 150 μg/day I.P. 4 weeks; Lorlatinib 5 mg/kg twice a day oral 6 weeks; or both
# Protocol: For tumour growth assays, 5×10^6 SH-SY5Y cells were suspended in 200 μl of a 50% Matrigel (BD, 354234) solution in PBS and subcutaneously injected in NMRI-Foxn1nu/nu mice (NKI; Janvier). After tumour outgrowth to around 200-250 mm^3, mice were randomized to control or treatment groups. The control group received 150 μl PBS daily intraperitoneally (I.P.) for 4 weeks (day 1-day 28). The TRAIL group received 150 μg/day through I.P. for 4 weeks (day 1-day 28). The Lorlatinib group received 5 mg/kg twice a day through oral gavage for 6 weeks (day 1-day 42) and 4 weeks (day 29-day 56) of PBS (150 μl/day I.P.). The combination group received Lorlatinib twice a day for 6 weeks (day 1-day 42) and 4 weeks TRAIL (day 29-day 56). Tumour size was measured three times a week. Mice were sacrificed at the humane endpoint (tumor size >1500 mm^3), the tumours were isolated and divided in two parts. One tumour piece was fresh frozen in liquid nitrogen and RNA was isolated using Trizol reagent. The other tumour piece was fixed in 4% (w/v) buffered formaldehyde (Klinipath) and embedded in paraffin for histological analyses. In vivo experiments were conducted at the NKI therapeutical intervention unit after ethical approval from the animal experiments committee of the NKI was obtained (AvD:30100 2015 407 appendix 1; WP8156).
# [9] = test system: SK-N-SH (ALK-F1174L) and NBL-W (ALK-R1275L) cell lines; assay: Cell viability (MTT) assay, cell lines with heterogeneous MES and ADRN composition; assay type: cell-based, human; conditions: Lorlatinib-only or TRAIL-only (100 ng/ml), 120 hours
# Protocol: Seeding densities were optimized for each cell line so that the control, non-treated cells would reach 70-80% confluence by the end of the experiment. […] Metabolic activity was measured by 3-(4,5-dimethylthiazol-2-yl)-2,5-diphenyltetrazolium bromide (MTT) assay, according to the manufacturer's instructions with minor modifications. Sextuple or triplicate measurements were used for each experimental condition. Two-sided t-tests assuming equal variance were used to determine significance. Experiments were repeated at least twice.
Molecule,"Sensitivity to Alectinib (cell survival) ([1]; isogenic pair with mutant ALK, MES-type cells, 120 hours)","Sensitivity to Alectinib (cell survival) ([2]; isogenic pair with mutant ALK, ADRN-type cells, 120 hours)",Tumour response of established tumours [3],Killing of co-cultured MES-type SH-EP2 cells [4],"Sensitivity to TRAIL (cell viability) ([1]; four isogenic pairs, MES cells, 72 hours of TRAIL treatment)",Killing of co-cultured ADRN-type IMR32 cells [5],Effect on ADRN population (SH-SY5Y-GFP) ([6]; Lorlatinib 5 μM or TRAIL 100 ng/ml),Effect on MES population (SH-EP2-RFP) ([6]; TRAIL 100 ng/ml),Apoptosis of SK-N-AS-TRAIL cells [7],"Sensitivity to TRAIL (cell viability) ([2]; four isogenic pairs, ADRN cells, 72 hours of TRAIL treatment)",Tumour growth response during treatment [8],Cell killing by single-agent treatment [9]
"CCc1cc2c(cc1N1CCC(N3CCOCC3)CC1)C(C)(C)c1[nH]c3cc(C#N)ccc3c1C2=O [Alectinib, reference compound]",resistance,preferential killing,,,,,,,,,,
B1,,,complete regression,killed,efficiently killed,not,reduction of the ADRN population,strongly reduced,apoptosis of a large proportion of the cells,unaffected,did not inhibit tumour growth,partly killed
